Source: the supplement of paper PMC7877785
± gives the uncertainty stated by the source.

Test: self-splicing fitness, log relative to wild type (ln ratio); higher = more splicing; Tetrahymena group I intron in knt gene, E. coli kanamycin selection, DiMSum; sequences stand for … in CUCUCU…GGAGGGAAAAGUUAUCAGGCAUGCACCUGGUAGCUAGUCUUUAAACCAAUAGAUUGCAUCGGUUUAAAAGGCAAGACCGUCAAAUUGCGGGAAAGGGGUCAACAGCCGUUCAGUACCAAGUCUCAGGGGAAACUUUGAGAUGGCCUUGCAAAGGGUAUGGUAAUAAGCUGACGGACAUGGUCCUAACCACGCAGCCAAGUCCUAAGUCAACAGAUCUUCUGUUGAUAUGGAUGCAGUUCACAGACUAAAUGUCGGUCGGGGAAGAUGUAUUCUUCUCAUAAGAUAUAGUCGGACCUCUCCUUAAUGGGAGCUAGCGGAUGAAGUGAUGCAACACUGGAGCCGCUGGGAACUAAUUUGUAUGCGAAAGUAUAUUGAUUAGUUUUGGAGUACUCGUGGUCG
How it was run: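 A randomised library covering all eight P1ex-region intron nucleotides was built with the intron in the knt kanamycin-resistance gene on pET-22b(+) and held in E. coli BL21(DE3). Cells were grown overnight at 37°C or 30°C on LB agar, with or without 25 μg/mL kanamycin, plus 100 μg/mL carbenicillin, 50 μM IPTG and 0.2% rhamnose, and pooled colonies were amplicon-sequenced on an Illumina HiSeq 2500. DiMSum fitness is the error-weighted combination of wild-type-normalised replicate fold changes, kanamycin versus none.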

| Sequence | self-splicing fitness (ln) (30 °C) | self-splicing fitness (ln) (37 °C) |
| --- | --- | --- |
| GAGUAGCAAUAUUACGACCC | 0.0573 ± 0.39 | – |
| GCCCAGCAAUAUUACGCUCA | -0.789 ± 0.08 | -0.055 ± 0.1 |
| CAGAAGCAAUAUUACGCGAU | -4.46 ± 0.32 | -2.59 ± 0.21 |
| GAUUAGCAAUAUUACGGAGG | -2.45 ± 0.18 | -1.81 ± 0.17 |
| UGGUAGCAAUAUUACGACGC | – | 1.38 ± 0.5 |
| CCCAAGCAAUAUUACGCGGC | -2.8 ± 0.2 | -2.38 ± 0.23 |
| AUACAGCAAUAUUACGGUAG | -1.54 ± 0.075 | -0.891 ± 0.087 |
| AUAUAGCAAUAUUACGACGC | -1.91 ± 0.27 | -0.93 ± 0.29 |
| AUUGAGCAAUAUUACGUGUA | -3.52 ± 0.21 | -2.69 ± 0.24 |
| CGUAAGCAAUAUUACGGUGG | -1.48 ± 0.082 | -1.25 ± 0.11 |
| AGCUAGCAAUAUUACGCGAA | -3.09 ± 0.23 | -1.24 ± 0.22 |
| UGGCAGCAAUAUUACGAUCA | -0.413 ± 0.14 | -0.198 ± 0.12 |
| GGCCAGCAAUAUUACGCUUU | -0.464 ± 0.064 | 0.4 ± 0.087 |
| AUGAAGCAAUAUUACGACUC | 0.055 ± 0.11 | 0.123 ± 0.13 |
| AUUGAGCAAUAUUACGUUAC | – | -1.76 ± 0.3 |
| UACUAGCAAUAUUACGACUC | -1.8 ± 0.42 | -0.907 ± 0.34 |
| GCAUAGCAAUAUUACGUCGC | -1.2 ± 0.28 | -2.32 ± 0.45 |
| UACUAGCAAUAUUACGACGA | -0.687 ± 0.058 | -0.172 ± 0.066 |
| UGGCAGCAAUAUUACGGUCC | -0.382 ± 0.16 | 0.88 ± 0.13 |
| GAGCAGCAAUAUUACGUCGA | -1.51 ± 0.12 | -0.741 ± 0.12 |
| ACGUAGCAAUAUUACGUAUG | -2.75 ± 0.18 | -3.33 ± 0.42 |
| UCUAAGCAAUAUUACGAGUC | -3.41 ± 0.3 | -2.93 ± 0.3 |
| AGUGAGCAAUAUUACGACGU | -0.966 ± 0.059 | -0.385 ± 0.066 |
| AACGAGCAAUAUUACGACGG | -4.27 ± 0.37 | -2.04 ± 0.23 |

| Sequence | self-splicing fitness (ln) (30 °C) | self-splicing fitness (ln) (37 °C) |
| --- | --- | --- |
| UUGGAGCAAUAUUACGACUG | -0.79 ± 0.46 | 0.294 ± 0.47 |
| UCGUAGCAAUAUUACGGGGC | -2.26 ± 0.2 | -2.55 ± 0.27 |
| UCAAAGCAAUAUUACGUCCU | -3.34 ± 0.29 | -1.98 ± 0.24 |
| UCCCAGCAAUAUUACGGUGA | -1.57 ± 0.11 | -1.02 ± 0.11 |
| CCCUAGCAAUAUUACGCCAC | -2.88 ± 0.27 | -1.6 ± 0.26 |
| UAAGAGCAAUAUUACGCCUU | -3.87 ± 0.25 | -2.89 ± 0.48 |
| AAAAAGCAAUAUUACGUCGG | -1.36 ± 0.082 | -1.39 ± 0.1 |
| GCGAAGCAAUAUUACGAUGA | -1.1 ± 0.11 | 0.105 ± 0.098 |
| UUGCAGCAAUAUUACGUUCG | -1.16 ± 0.049 | -0.636 ± 0.071 |
| GAACAGCAAUAUUACGCAUG | -1.18 ± 0.064 | -0.291 ± 0.08 |
| CCGUAGCAAUAUUACGGCGU | -2.57 ± 0.23 | -1.86 ± 0.25 |
| UGCAAGCAAUAUUACGGGGG | -3.16 ± 0.16 | -2.04 ± 0.15 |
| UCUCAGCAAUAUUACGUAUU | -3.14 ± 0.2 | -2 ± 0.16 |
| AACUAGCAAUAUUACGGGAC | -3.22 ± 0.3 | -1.08 ± 0.17 |
| GUCUAGCAAUAUUACGACCU | -2.33 ± 0.21 | -1.21 ± 0.17 |
| UCAUAGCAAUAUUACGCAGU | -4.03 ± 0.36 | -3.4 ± 0.31 |
| UUUCAGCAAUAUUACGGCAU | -1.87 ± 0.16 | -1.08 ± 0.19 |
| AACAAGCAAUAUUACGUGAC | -2.94 ± 0.095 | -2.34 ± 0.12 |
| AGUAAGCAAUAUUACGUUAC | -3.26 ± 0.24 | -2.61 ± 0.27 |
| AAAGAGCAAUAUUACGGUAG | -3.9 ± 0.27 | -2.11 ± 0.18 |
| AACGAGCAAUAUUACGCGUU | -4.34 ± 0.2 | -2.42 ± 0.14 |
| ACUCAGCAAUAUUACGAAUU | -0.96 ± 0.089 | -0.208 ± 0.085 |
| CUUGAGCAAUAUUACGCAGG | -3.46 ± 0.25 | -3.55 ± 0.35 |
| UGCUAGCAAUAUUACGUAUG | -1.1 ± 0.067 | -0.309 ± 0.089 |
